The text below walks through data of the emibetuzumab library of Makowski et al. (2022).

The chains are these.
B1: VH:VL chains; a variant is named by its letters at X, in order (parent)
chain 1: QVQLVQSGAEVKKPGASVKVSCKASGYTFTDYXMHWVRQAPGQGLEWMGXVNPNXXXTTYNQKFEGRVTMTTDTSTSTAYMELRSLRSDDTAVYYCARXNXLDXWGQGTTVTVSS
chain 2: DIQMTQSPSSLSASVGDRVTITCSVSSSVSSIYLHWYQQKPGKAPKLLIYSTSNLASGVPSRFSGSGSGTDFTLTISSLQPEDFATYYCQVYSGYPLTFGGGTKVEIK

The series covers variants of B1. The series is described as follows: yeast display scFab, FACS + sequencing. In outline:
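Heavy-chain CDR mutant scFab yeast surface library, FACS-sorted after labelling with biotinylated ovalbumin (260 μg/mL in PBSB, 3 h, room temperature) or soluble membrane proteins (130 μg/mL, 20 min on ice), plus anti-Myc. Gates collected the top 25% and bottom 10% of binders, and samples from two replicates were deep sequenced. Non-specific binding call: a sequence was positive if found in ≥3 of 4 positive samples (membrane protein and ovalbumin pooled) and no negatives, and negative by the converse rule.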
For YRRRGYLV, the non-specific binding call is “binds”.

As to YRTAGAGV, the non-specific binding call is reported as “binds”.

Regarding YRTAGAGD, the non-specific binding call was “binds”.

As to DRTGDDVY, the non-specific binding call is “no binding”.

On to DRTGDDVA, for which the non-specific binding call is “no binding”.

With YRRRGYAA, the non-specific binding call is “binds”.

Consider YRTGDSAA, for which the non-specific binding call is “binds”.

As to DRTGDSSS, the non-specific binding call is given as “no binding”.

Consider SRTGSDVD, for which the non-specific binding call is on record as “no binding”.

Take YRTGGAWD: the non-specific binding call is on record as “binds”.

For YRTGTAGF, the non-specific binding call was “binds”.

Consider VRTEDSLD, for which the non-specific binding call is “no binding”.

Regarding VRTEDSLV, the non-specific binding call is “no binding”.

Take YRRRGVWA: the non-specific binding call was “binds”.

YRRRSSVD: the non-specific binding call is recorded as “binds”.

As to YRRRGYWA, the non-specific binding call is “binds”.

For YRRRGYGD, the non-specific binding call is listed as “binds”.

For the variant YRTGDDVF, the non-specific binding call is “no binding”.

Consider FRTGDSLV, for which the non-specific binding call is given as “no binding”.

VRTEDASF: the non-specific binding call is recorded as “no binding”.

With FRTGGSAD, the non-specific binding call is given as “binds”.

Take VRTEDDWS: the non-specific binding call is listed as “no binding”.

For VRTEDDWF, the non-specific binding call is “no binding”.

VRTEDDWY: the non-specific binding call is on record as “no binding”.

With VRTEDDWV, the non-specific binding call is on record as “no binding”.

In the case of YRTGAALS, the non-specific binding call is given as “binds”.

Turning to VRTADVGV, the non-specific binding call was “binds”.

With VRTEDDLV, the non-specific binding call is “no binding”.

As for YRRRSAGA, the non-specific binding call is given as “binds”.

On to VRTGDSLD, for which the non-specific binding call was “no binding”.

VRTEDDVF: the non-specific binding call was “no binding”.

For VRTEDDVD, the non-specific binding call is “no binding”.

On to VRTEDDVA, for which the non-specific binding call is given as “no binding”.

For the variant VRTEDDVY, the non-specific binding call is on record as “no binding”.

FRTGDDAV: the non-specific binding call is “no binding”.

For FRTGDDAA, the non-specific binding call is “no binding”.

Turning to YRTKGAAD, the non-specific binding call is “binds”.

Take YRTGDSSA: the non-specific binding call was “no binding”.

With FRTGDSWD, the non-specific binding call is listed as “no binding”.

With FRTGDSVD, the non-specific binding call is on record as “no binding”.

For the variant FRTGDAGA, the non-specific binding call is “no binding”.

In the case of YRTKGAVY, the non-specific binding call is given as “binds”.

As for YRTGGSSV, the non-specific binding call was “binds”.

Turning to VRRTDFVA, the non-specific binding call was “binds”.

YRTGAAAD: the non-specific binding call is reported as “binds”.

With FRTKGSGD, the non-specific binding call was “binds”.

Turning to VRTKDFSY, the non-specific binding call is given as “no binding”.

Take YRRRSAVA: the non-specific binding call is “binds”.

As for FRTADVGV, the non-specific binding call is “binds”.

Take FRTGSAWF: the non-specific binding call was “binds”.

As for YRTGDSGD, the non-specific binding call was “no binding”.

As for YRTKASLD, the non-specific binding call was “binds”.

Take ARRTDVAD: the non-specific binding call is “binds”.

On to VRTADDGA, for which the non-specific binding call is listed as “no binding”.

As for YRRRGYVV, the non-specific binding call is given as “binds”.

As to YRRRGYVF, the non-specific binding call is reported as “binds”.

Consider YRRRGYVD, for which the non-specific binding call is “binds”.

Turning to YRRRGYVA, the non-specific binding call is “binds”.

For the variant VRRTSAAS, the non-specific binding call was “binds”.

On to YRTADVGV, for which the non-specific binding call was “binds”.

In the case of VRTEDDAS, the non-specific binding call was “no binding”.

On to FRTGDDWV, for which the non-specific binding call is given as “no binding”.

Turning to FRTEGSAD, the non-specific binding call was “binds”.

With FRTKGAWV, the non-specific binding call is listed as “binds”.

With FRTGDAWV, the non-specific binding call is given as “no binding”.

With VRTEDSSV, the non-specific binding call is listed as “no binding”.

As to YRTGAAGV, the non-specific binding call is “binds”.

VRRRSSLA: the non-specific binding call is given as “binds”.

Regarding YRTEDVGA, the non-specific binding call was “binds”.

VRTGDDGV: the non-specific binding call was “no binding”.

For YRTAGAAD, the non-specific binding call is recorded as “binds”.

On to FRRTDFVA, for which the non-specific binding call is listed as “binds”.

With FRTGDDLV, the non-specific binding call is on record as “no binding”.

As to FRTGDAVF, the non-specific binding call was “no binding”.

Consider FRTGDAVS, for which the non-specific binding call is recorded as “no binding”.

On to VRTEDSGD, for which the non-specific binding call is recorded as “no binding”.

Take VRTAASGD: the non-specific binding call is listed as “binds”.

Take FRTGDDSF: the non-specific binding call is “no binding”.

In the case of YRRRGVGS, the non-specific binding call is listed as “binds”.

Turning to YRRRGVGY, the non-specific binding call was “binds”.

Regarding YRRRGVGV, the non-specific binding call is recorded as “binds”.

As to YRTGGAGD, the non-specific binding call was “no binding”.

As to VRTGDSAY, the non-specific binding call was “no binding”.

With YRTAGSGV, the non-specific binding call is “binds”.

As to YRTAGSGD, the non-specific binding call was “binds”.

In the case of YRRRGYSD, the non-specific binding call is on record as “binds”.

On to YRRRGYSS, for which the non-specific binding call is reported as “binds”.

As for VRTGGAAA, the non-specific binding call is “binds”.

With FRTKAAVY, the non-specific binding call is “binds”.

Consider FRTEGSGY, for which the non-specific binding call was “binds”.

Consider YRTGGSGA, for which the non-specific binding call was “binds”.

With YRTGGSGD, the non-specific binding call is on record as “binds”.

On to YRRRSSSS, for which the non-specific binding call is “binds”.

Turning to VRTEDAWV, the non-specific binding call is “no binding”.

On to VRTEDAWA, for which the non-specific binding call is on record as “no binding”.

With YRTGASSD, the non-specific binding call is listed as “binds”.

As for YRRRSSLA, the non-specific binding call is on record as “binds”.

YRTKAAVD: the non-specific binding call was “binds”.

For YRTADDWV, the non-specific binding call is on record as “binds”.

As to VRTEDALV, the non-specific binding call is recorded as “no binding”.

Take VRTEDALD: the non-specific binding call is reported as “no binding”.

In the case of VRTEDFGV, the non-specific binding call was “no binding”.

Turning to VRTKADAV, the non-specific binding call is reported as “no binding”.

As to FRTGDDGA, the non-specific binding call is “no binding”.

FRTGGAVA: the non-specific binding call was “binds”.

With YRTGGSLD, the non-specific binding call was “binds”.

Take FRTGDSAS: the non-specific binding call was “no binding”.

Regarding YRTAGSSD, the non-specific binding call is recorded as “binds”.

Regarding YRRRGVVV, the non-specific binding call is listed as “binds”.

Consider FRTKDDVY chain 1 E46K, for which the non-specific binding call is recorded as “binds”.

Turning to VRTEDSWA, the non-specific binding call is listed as “no binding”.

As to VRTEDSWS, the non-specific binding call is “no binding”.

Take FRTKGAAD: the non-specific binding call is reported as “binds”.

For YRTGAASD, the non-specific binding call is given as “binds”.

Consider YRTEGAVA, for which the non-specific binding call is recorded as “binds”.

In the case of FRRTDFVA chain 1 C22Y, the non-specific binding call is given as “binds”.

Regarding YRRRGVSA, the non-specific binding call is recorded as “binds”.

For the variant VRTKAVAY, the non-specific binding call was “binds”.

In the case of YRRRTAAV, the non-specific binding call is “binds”.

For VRTGAVGD, the non-specific binding call is on record as “binds”.
